Assay results: patent US11155602B2, “Polypeptides targeting HIV fusion” (priority 2015, dated 2021)

These molecules were tested on NL-Rluc virus (assay: Combinectin potency assay: antiviral EC50, NL-Rluc virus in MT-2 cells, luciferase readout). Conditions: Anti-N17 Adnectin, Table 3.
Assay type: cell-based, HIV-1
Outline: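 Peptides, serially diluted threefold over 11 points in triplicate, were exposed for 4–5 days to MT-2 cells preinfected 1 h with NL-Rluc virus (MOI 0.01). Replication read out as Renilla luciferase signal, with EC50 derived against untreated infected controls.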

Molecule	EC50 [nM]
220 (protein, Adnectin) MGHHHHHHCGSVSDVPRDLEVVAATPTSLLISWEYKVAHNRYYRITYGETGGNSPVQEFTVPSVLSTATISGLKPGVDYTITVYAVTYGDDSAPISINYRTEID	86
222 (protein, Adnectin) MGHHHHHHGGSVSDVPRDLEVVAATPTSLLISWEYKVDHQRYYRITYGETGGNSPVQEFTVPSVLSTATISGLKPGVDYTITVYAVTYGDDSAPISINYRTEID	> 1000
229 (protein, Adnectin) MGHHHHHHGGSVSDVPRDLEVVAATPTSLLISWEYKVDHRRYYRITYGETGGNSPVQEFTVPSVLSTATISGLKPGVDYTITVYAVTYGDDSAPISINYRTEID	> 1000
221 (protein, Adnectin) MGHHHHHHGGSVSDVPRDLEVVAATPTSLLISWEYKVYGYRYYRITYGETGGNSPVQEFTVPSVLSTATISGLKPGVDYTITVYAVTYGDDSAPISINYRTEID	> 1000
223 (protein, Adnectin) MGHHHHHHGGSVSDVPRDLEVVAATPTSLLISWEYKVDYRRYYRITYGETGGNSPVQEFTVPSVLSTATISGLKPGVDYTITVYAVTYGDDSAPISINYRTEID	> 1000
253 (protein, Adnectin) MGHHHHHHGGSVSDVPRDLEVVAATPTSLLISWEYKVDAYRYYRITYGETGGNSPVQEFTVPSVLSTATISGLKPGVDYTITVYAVTYGDDSAPISINYRTEID	> 1000
252 (protein, Adnectin) MGHHHHHHGGSVSDVPRDLEVVAATPTSLLISWEYKVAHRRYYRITYGETGGNSPVQEFTVPSVLSTATISGLKPGVDYTITVYAVTYGDDSAPISINYRTEID	> 1000
249 (protein, Adnectin) MGHHHHHHGGSVSDVPRDLEVVAATPTSLLISWEYKVHPYRYYRITYGETGGNSPVQEFTVPSVLSSATLNGLKPGVDYTITVYAVTYGDDSAPISINYRTEID	83
248 (protein, Adnectin) MGHHHHHHGGSVSDVPRDLEVVAATPTSLLISWEYKVHPYRYYRITYGETGGNTPVQEFRVPSVLSTATISGLKPGVDYTITVYAVTYADASAPISINYRTEID	> 1000
251 (protein, Adnectin) MGHHHHHHGGSVSDVPRDLEVVAATPTSLLISWEYKVHPYRYYRITYGETGGNSPVQEFNVPSVLSTATISGLKPGVDYTITVYAVTYGDDSAPISINYRTEID	186
246 (protein, Adnectin) MGHHHHHHGGSVSDVPRDLEVVAATPTSLLISWEYKVNYNRYYRITYGETGGNSPVQEFTVPSVLSTATISGLKPGVDYTITVYAVTEGVQSAPISINYRTEID	> 1000
224 (protein, Adnectin) MGHHHHHHGGSVSDVPRDLEVVAATPTSLLISWEYKVAYDRYYRITYGETGGNSPVQEFTVPSVLSTATISGLKPGVDYTITVYAVTYGDDSAPISINYRTEID	> 1000
225 (protein, Adnectin) MGHHHHHHGGSVSDVPRDLEVVAATPTSLLISWEYKVTSYRYYRITYGETGGNSPVQEFTVPSVLSTATISGLKPGVDYTITVYAVTYGDDSAPISINYRTEID	> 1000
250 (protein, Adnectin) MGHHHHHHGGSVSDVPRDLEVVAATPTSLLISWEYKVHPYRYYRITYGETGGNSPVQEFTVPSVLSSAKISGLKPGVDYTITVYAVTYGDDSAPISINYRTEID	218
245 (protein, Adnectin) MGHHHHHHGGSVSDVPRDLEVVAATPTSLLISWKYQVHAYRYYRITYGETGGNSPVQEFTVPSVLSTATINGLKPGVDYTITVYAVTYGIISEPISINYRTEID	50
228 (protein, Adnectin) MGHHHHHHGGSVSDVPRDLEVVAATPTSLLISWEYKVNHQRYYRITYGETGGNSPVQEFTVPSVLSTATISGLKPGVDYTITVYAVTYGDDSAPISINYRTEID	> 1000
230 (protein, Adnectin) MGVSDVPRDLEVVAATPTSLLISWEYKVHPYRYYRITYGETGGNSPVQEFTVPSVLSTATISGLKPGVDYTITVYAVTYGVDSDPISINYRTDDKPSQHHHHHH	17
125 (protein, Adnectin) MGHHHHHHGGVSDVPRDLEVVAATPTSLLISWEYKVHPYRYYRITYGETGGNSPVQEFTVPSVLSTATISGLKPGVDYTITVYAVTYGVQSDPISINYRTPGG	4340

Molecule	EC50 [nM]
127 (protein, Adnectin) MGHHHHHHGGVSDVPRDLEVVAATPTSLLISWQYKVHPYRYYRITYGETGGNSPVQEFTVPSVLSSAQISGLKPGVDYTITVYAVTYGIESSPISINYRTPGG	9
227 (protein, Adnectin) MGHHHHHHGGSVSDVPRDLEVVAATPTSLLISWEYKVHPYRYYRITYGETGGNSPVQEFTVPSVLSTATISGLKPGVDYTITVYAVTYGDDSAPISINYRKEAEL	> 1000
226 (protein, Adnectin) MGHHHHHHGGSVSDVPRDLEVVAATPTSLLISWEYKVHPYRYYRIIHETGGNSPVQEFTVPSVLSTATISGLKPGVDYTITVYAVTYGDDSAPISINYRTEID	631
124 (protein, Adnectin) MGVSDVPRDLEVVAATPTSLLISWEYKVHPYRYYRITYGETGGNSPVQEFTVPSVLSTAEISGLKPGVDYTITVYAVTRGVDSAPISINYRTPIDKPSQHHHHHH	6
233 (protein, Adnectin) MGVSDVPRDLEVVAATPTSLLISWEYKVHPYRYYRITYGETGGNSPVQEFTVPSVLSTATISGLKPGVDYTITVYAVTDGVQSSPISINYRTEIDKPSQHHHHHH	55
244 (protein, Adnectin) MGVSDVPRDLEVVAATPTSLLISWEYKVDPYRYYRITYGETGGNSPVQEFTVPSVLSTATISGLKPGVDYTITVYAVTYGVDSDPISINYRTEIDKPSQHHHHHH	58
241 (protein, Adnectin) MGVSDVPRDLEVVAATPTSLLISWEYKVNPWRYYRITYGETGGNSPVQEFTVPSVLSTATISGLKPGVDYTITVYAVTYGVNSLPISINYRTEIDKPSQHHHHHH	8
126 (protein, Adnectin) MGVSDVPRDLEVVAATPTSLLISWEYKVHPYRYYRITYGETGGNSPVQEFTVPSVLSTATISGLKPGVDYTITVYAVTYGIQSPPISINYRTEIDKPSQHHHHHH	8
236 (protein, Adnectin) MGVSDVPRDLEVVAATPTSLLISWEYKVNPWRYYRITYGETGGNSPVQEFTVPSVLSTATISGLKPGVDYTITVYAVTRGVDSAPISINYRTEIDKPSQHHHHHH	85
231 (protein, Adnectin) MGVSDVPRDLEVVAATPTSLLISWEYKVHPYRYYRITYGETGGNSPVQEFTVPSVLSTATISGLKPGVDYTITVYAVTYGVNSIPISINYRTEIDKPSQHHHHHH	10
243 (protein, Adnectin) MGVSDVPRDLEVVAATPTSLLISWEYKVNPWRYYRITYGETGGNSPVQEFTVPSVLSTATISGLKPGVDYTITVYAVTYGVDSDPISINYRTEIDKPSQHHHHHH	48
234 (protein, Adnectin) MGVSDVPRDLEVVAATPTSLLISWEYKVNAYRYYRITYGETGGNSPVQEFTVPSVLSTATISGLKPGVDYTITVYAVTYGIDSSPISINYRTEIDKPSQHHHHHH	20
239 (protein, Adnectin) MGVSDVPRDLEVVAATPTSLLISWQYKVHPYRWYRITYGETGGNSPVQEFTVPSVLSTATISGLKPGVDYTITVYAVTYGVNSIPISINYRTEIDKPSQHHHHHH	4
235 (protein, Adnectin) MGVSDVPRDLEVVAATPTSLLISWEYKVHYDRYYRITYGETGGNSPVQEFTVPSVLSTATISGLKPGVDYTITVYAVTNGVLSSPISINYRTEIDKPSQHHHHHH	29
232 (protein, Adnectin) MGVSDVPRDLEVVAATPTSLLISWEYKVNAYRYYRITYGETGGNSPVQEFTVPSVLSTATISGLKPGVDYTITVYAVTYGIESSPISINYRTEIDKPSQHHHHHH	47
238 (protein, Adnectin) MGVSDVPRDLEVVAATPTSLLISWEYKVNPWRYYRITYGETGGNSPVQEFTVPSVLSTATISGLKPGVDYTITVYAVTYGIQSPPISINYRTEIDKPSQHHHHHH	11
240 (protein, Adnectin) MGVSDVPRDLEVVAATPTSLLISWEYKVSPYRYYRITYGETGGNSPVQEFTVPSVLSTATISGLKPGVDYTITVYAVTYGVNSIPISINYRTEIDKPSQHHHHHH	5
